Assays:
[1] = target: T1, recombinant human CD28/Fc Chimera (R&D Systems) (human, UniProt P10747 19-152); assay: SPR (BIAcore), CM5 chip coated with 12500 RU CD28-Fc; dAb injected at 19.4 µM
T1 construct: Bought reagent (R&D Systems, Abingdon, UK); not shown: Fc portion of the bought chimera
Excerpt: (§1) All 58 clones were expressed and purified and tested on the BIAcore against a CM5 chip coated with 12500 RU (response units) of CD28-Fc. […] The protein concentrations used for BIAcore analysis were: […]

[2] = target: T1, recombinant human CD28/Fc Chimera (R&D …); assay: SPR (BIAcore), CM5 chip coated with 12500 RU CD28-Fc; dAb injected at 14.7 µM
Excerpt: as §1

[3] = target: T1, recombinant human CD28/Fc Chimera (R&D …); assay: SPR (BIAcore), CM5 chip coated with 12500 RU CD28-Fc; dAb injected at 68.1 µM
Excerpt: as §1

[4] = target: T1, recombinant human CD28/Fc Chimera (R&D …); assay: SPR (BIAcore), CM5 chip coated with 12500 RU CD28-Fc; dAb injected at 57.5 µM
Excerpt: as §1

[5] = target: T1, recombinant human CD28/Fc Chimera (R&D …); assay: SPR (BIAcore), CM5 chip coated with 12500 RU of CD28-Fc, purified dAb, concentration not given
Excerpt: as §1

[6] = target: T1, recombinant human CD28/Fc Chimera (R&D …); assay: SPR (BIAcore), CM5 chip coated with 12500 RU CD28-Fc; dAb injected at 13.8 µM
Excerpt: as §1

[7] = target: T1, recombinant human CD28/Fc Chimera (R&D …); assay: SPR (BIAcore), CM5 chip coated with 12500 RU CD28-Fc; dAb injected at 16.6 µM
Excerpt: as §1

[8] = target: T1, recombinant human CD28/Fc Chimera (R&D …); assay: SPR (BIAcore), CM5 chip coated with 12500 RU CD28-Fc; dAb injected at 42.3 µM
Excerpt: as §1

B1: DOM21-22 (other)
VH: EVQLLESGGGLVQPGGSLRLSCAASGFTFELYQMGWVRQAPGKGLEWVSTIMPSGNLTYYADSVKGRFTISRDNSKNTLYLQMNSLRAEDTAVYYCAKMWSLNLGFHAAFDYWGQGTLVTVSS
notes: Human VH antibody single variable domain (dAb), expressed from pDOM5 and purified
binding result [1]: binds

B2: DOM21-27 (other)
VL: DIQMTQSPSSLSASVGDRVTITCRASQSIGTGLRWYQQKPGKAPMLLIYRASILQSGVPSRFSGSGSGTDFTLTISSLQPEDFATYYCQQTTLQPFTFSQGTKVEIKR
notes: Human Vkappa antibody single variable domain (dAb), expressed from pDOM5 and purified
binding result [2]: binds

B3: DOM21-6 (other)
VH: EVQLLESGGGLVQPGGSLRLSCAASGFTFENYGMAWVRQAPGKGLEWVSNIGRAGSVTYYADSVKGRFTISRDNSKNTLYLQMNSLRAEDTAVYYCAKVQSWRTFDYWGQGTLVTVSS
notes: as for B1
binding result [3]: binds

B4: DOM21-20 (other)
VH: EVQLLESGGGLVQPGGSLRLSCAASGFTFPAYSMIWVRQAPGKGLEWVSTISPLGYSTYYADSVKGRFTISRDNSKNTLYLQMNSLRAEDTAVYYCAEQTAYLNRATEHFDYWGQGTLVTVSS
notes: as for B1
binding result [4]: binds

B5: DOM21-44 (other)
VH: EVQLLESGGGLVQPGGSLRLSCAASGFTFARYTMVWVRQAPGKGLEWVSAIHFDGRTTYYADSVKGRFTISRDNSKNTLYLQMNSLRAEDTAVYYCAKNEWASLKHFDYWGQGTLVTVSS
notes: as for B1
binding result [5]: binds

B6: DOM21-18 (other)
VL: DIQMTQSPSSLSASVGDRVTITCRASQYIGTSLNWYQQKPGKAPKLLTYQASLLQSGVPSRFSGSGSGTDFTLTISSLQPEDFATYYCQQLALRPMTFGQGTKVEIKR
notes: Human Vkappa antibody single variable domain (dAb), DPK9/Jk1 framework, expressed from pDOM5 and purified
binding result [6]: binds

B7: DOM21-38 (other)
VH: EVQLLESGGGLVQPGGSLRLSCAASGFTFILYDMQWVRQAPGKGLEWVSRISANGHDTYYADSVKGRFTISRDNSKNTLYLQMNSLRAEDTAVYYCAKGPHYLFDYWGQGTLVTVSS
notes: as for B1
binding result [5]: binds

B8: DOM21-28 (other)
VL: DIQMTQSPSSLSASVGDRVTITCRASQSISHSLVWYQQKPGKAPKLLIYWASLLQSGVPSRFSGSGSGTDFTLTISSLQPEDFATYYCQQGMTTPFTFGQGTKVEIKR
notes: as for B2
binding result [7]: binds

B9: DOM21-4 (other)
VH: EVQLLESGGGLVQPGGSLRLSCAASGFTFSRYHMAWVRQAPGKGLEWVSVIDSLGLQTYYADSVKGRFTISRDNSKNTLYLQMNSLRAEDTAVYYCAEYGGAFDYWGQGTLVTVSS
notes: Human VH antibody single variable domain (dAb), DP47/JH4b framework, expressed from pDOM5 and purified
binding result [8]: binds

Source: patent US20130230540A1 (DOMANTIS, published 2013)
